Sequences and labels used below:
T1: EsCas13d, nuclease-dead (Eubacterium siraeum, UniProt B0MS50, R295A;H300A;R849A;H854A)
T1 sequence: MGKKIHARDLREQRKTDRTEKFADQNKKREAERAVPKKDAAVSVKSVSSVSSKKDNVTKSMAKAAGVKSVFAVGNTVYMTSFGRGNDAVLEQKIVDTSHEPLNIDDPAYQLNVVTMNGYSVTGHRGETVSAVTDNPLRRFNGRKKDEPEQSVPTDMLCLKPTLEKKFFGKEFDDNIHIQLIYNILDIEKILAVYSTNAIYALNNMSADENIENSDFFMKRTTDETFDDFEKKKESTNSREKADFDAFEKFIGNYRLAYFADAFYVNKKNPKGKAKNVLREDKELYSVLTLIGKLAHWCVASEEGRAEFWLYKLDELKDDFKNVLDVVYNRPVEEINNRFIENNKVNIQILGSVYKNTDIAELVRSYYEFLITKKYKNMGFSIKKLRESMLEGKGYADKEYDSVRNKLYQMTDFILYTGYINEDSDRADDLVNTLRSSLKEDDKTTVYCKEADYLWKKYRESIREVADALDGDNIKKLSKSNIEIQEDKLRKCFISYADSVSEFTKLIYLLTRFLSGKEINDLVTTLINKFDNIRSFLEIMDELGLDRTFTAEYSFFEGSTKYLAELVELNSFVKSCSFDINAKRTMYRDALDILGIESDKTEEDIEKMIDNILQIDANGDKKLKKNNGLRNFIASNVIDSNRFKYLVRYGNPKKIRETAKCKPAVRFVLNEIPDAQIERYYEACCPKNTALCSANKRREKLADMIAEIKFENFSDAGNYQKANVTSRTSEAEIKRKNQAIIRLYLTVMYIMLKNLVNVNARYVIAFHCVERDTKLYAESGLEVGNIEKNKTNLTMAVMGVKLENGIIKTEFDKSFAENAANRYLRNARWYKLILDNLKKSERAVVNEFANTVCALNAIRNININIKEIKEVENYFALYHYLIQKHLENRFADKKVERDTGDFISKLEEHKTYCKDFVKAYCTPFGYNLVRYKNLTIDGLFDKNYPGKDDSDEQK

B1: target 2 MT 5'PFS GAC 3'PFS AAG (mixed)
RNA 1: CACCCGUGCAAAAUUGCAGGGGUCUAAAACCUUCUCCAAAUUGUUUCAUCCU
RNA 2: GGGAAUGGAUCCACAUCUACGAAUUCGACAGGAUGAAACAAUUUGGAGAAGAAGAGAUCGGAAGAGCACACGU
B2: target 2 MT 5'PFS AGG 3'PFS CAG (mixed)
RNA 1: B1 RNA 1
RNA 2: B1 RNA 2 with G27A, A28G, C29G, A52C
B3: target 2 MT 5'PFS AUA 3'PFS AUG (mixed)
RNA 1: B1 RNA 1
RNA 2: B1 RNA 2 with G27A, A28U, C29A, A53U
B4: target 2 MT 5'PFS ACC 3'PFS CAG (mixed)
RNA 1: B1 RNA 1
RNA 2: B1 RNA 2 with G27A, A28C, A52C
B5: target 2 MT 5'PFS GUU 3'PFS UCC (mixed)
RNA 1: B1 RNA 1
RNA 2: B1 RNA 2 with A28U, C29U, A52U, A53C, G54C
B6: target 2 MT 5'PFS ACC 3'PFS CAA (mixed)
RNA 1: B1 RNA 1
RNA 2: B1 RNA 2 with G27A, A28C, A52C, G54A
B7: target 2 MT 5'PFS CAC 3'PFS UAU (mixed)
RNA 1: B1 RNA 1
RNA 2: B1 RNA 2 with G27C, A52U, G54U
B8: target 2 MT 5'PFS UGG 3'PFS CAA (mixed)
RNA 1: B1 RNA 1
RNA 2: B1 RNA 2 with G27U, A28G, C29G, A52C, G54A
B9: target 2 MT 5'PFS GCG 3'PFS AUC (mixed)
RNA 1: B1 RNA 1
RNA 2: B1 RNA 2 with A28C, C29G, A53U, G54C
B10: target 2 MT 5'PFS GUU 3'PFS UCU (mixed)
RNA 1: B1 RNA 1
RNA 2: B1 RNA 2 with A28U, C29U, A52U, A53C, G54U
B11: target 2 MT 5'PFS AAU 3'PFS UAU (mixed)
RNA 1: B1 RNA 1
RNA 2: B1 RNA 2 with G27A, C29U, A52U, G54U
B12: target 2 MT 5'PFS GUU 3'PFS UCA (mixed)
RNA 1: B1 RNA 1
RNA 2: B1 RNA 2 with A28U, C29U, A52U, A53C, G54A
B13: target 2 MT 5'PFS GGU 3'PFS ACG (mixed)
RNA 1: B1 RNA 1
RNA 2: B1 RNA 2 with A28G, C29U, A53C
B14: target 2 MT 5'PFS AAU 3'PFS UAC (mixed)
RNA 1: B1 RNA 1
RNA 2: B1 RNA 2 with G27A, C29U, A52U, G54C
B15: target 2 MT 5'PFS CGC 3'PFS UCG (mixed)
RNA 1: B1 RNA 1
RNA 2: B1 RNA 2 with G27C, A28G, A52U, A53C
B16: target 2 MT 5'PFS UAU 3'PFS GAA (mixed)
RNA 1: B1 RNA 1
RNA 2: B1 RNA 2 with G27U, C29U, A52G, G54A
B17: target 2 MT 5'PFS GCG 3'PFS AUA (mixed)
RNA 1: B1 RNA 1
RNA 2: B1 RNA 2 with A28C, C29G, A53U, G54A
B18: target 2 MT 5'PFS GGU 3'PFS ACU (mixed)
RNA 1: B1 RNA 1
RNA 2: B1 RNA 2 with A28G, C29U, A53C, G54U
B19: target 2 MT 5'PFS CUC 3'PFS AAC (mixed)
RNA 1: B1 RNA 1
RNA 2: B1 RNA 2 with G27C, A28U, G54C
B20: target 2 MT 5'PFS UGG 3'PFS CAG (mixed)
RNA 1: B1 RNA 1
RNA 2: B1 RNA 2 with G27U, A28G, C29G, A52C
B21: target 2 MT 5'PFS AUA 3'PFS AUC (mixed)
RNA 1: B1 RNA 1
RNA 2: B1 RNA 2 with G27A, A28U, C29A, A53U, G54C
B22: target 2 MT 5'PFS CUC 3'PFS AAA (mixed)
RNA 1: B1 RNA 1
RNA 2: B1 RNA 2 with G27C, A28U, G54A
B23: target 2 MT 5'PFS GAC 3'PFS AAU (mixed)
RNA 1: B1 RNA 1
RNA 2: B1 RNA 2 with G54U
B24: target 2 MT 5'PFS AUA 3'PFS AUA (mixed)
RNA 1: B1 RNA 1
RNA 2: B1 RNA 2 with G27A, A28U, C29A, A53U, G54A
B25: target 2 MT 5'PFS CUC 3'PFS AAG (mixed)
RNA 1: B1 RNA 1
RNA 2: B1 RNA 2 with G27C, A28U
B26: target 2 MT 5'PFS UCA 3'PFS AGA (mixed)
RNA 1: B1 RNA 1
RNA 2: B1 RNA 2 with G27U, A28C, C29A, A53G, G54A
B27: target 2 MT 5'PFS UCA 3'PFS AGC (mixed)
RNA 1: B1 RNA 1
RNA 2: B1 RNA 2 with G27U, A28C, C29A, A53G, G54C
B28: target 2 MT 5'PFS GGU 3'PFS ACA (mixed)
RNA 1: B1 RNA 1
RNA 2: B1 RNA 2 with A28G, C29U, A53C, G54A
B29: target 2 MT 5'PFS AUA 3'PFS AUU (mixed)
RNA 1: B1 RNA 1
RNA 2: B1 RNA 2 with G27A, A28U, C29A, A53U, G54U
B30: target 2 MT 5'PFS GCG 3'PFS AUG (mixed)
RNA 1: B1 RNA 1
RNA 2: B1 RNA 2 with A28C, C29G, A53U
B31: target 2 MT 5'PFS UCA 3'PFS AGG (mixed)
RNA 1: B1 RNA 1
RNA 2: B1 RNA 2 with G27U, A28C, C29A, A53G
B32: target 1 insA 3' of 7,insG 3' of 2 (mixed)
RNA 1: CACCCGUGCAAAAAUGCAGGGGUCUAAAACUGAGCGGAUAACCUCUCUAUGG
RNA 2: GGGAAUGGAUCCACAUCUACGAAUUCGUACCAUAGAGAGGUUAUCACGCUCGACCGAGAUCGGAAGAGCACACGU
B33: target 1 insU 3' of 12,insG 3' of 1 (mixed)
RNA 1: B32 RNA 1
RNA 2: B32 RNA 2 with A43U, U44A, C45U, A46C, G52A, A53G
B34: target 1 G5U,C21A (mixed)
RNA 1: B32 RNA 1
RNA 2: GGGAAUGGAUCCACAUCUACGAAUUCGUACAAUAGAGAGGUUAUCCUCUCACCGAGAUCGGAAGAGCACACGU
B35: target 1 insG 3' of 22,insC 3' of 12 (mixed)
RNA 1: B32 RNA 1
RNA 2: GGGAAUGGAUCCACAUCUACGAAUUCGUACGCAUAGAGAGGCUUAUCCGCUCACCGAGAUCGGAAGAGCACACGU

Changes are numbered by the printed parent chain. Names and notes keep the numbering of the source.

We go through 35 molecules from publication PMC10786891, “Massively parallel profiling of RNA-targeting CRISPR-Cas13d”.

The data set addresses T1, EsCas13d, nuclease-dead. The data set can be described thus: crRNA (strand 1, pre-loaded); Mg2+; 40 mM Tris-HCl pH 7.5, 150 mM NaCl, 6 mM MgCl2, 1 mM DTT, 0.1% Tween-20, 0.2 mg/ml BSA; 25 C; 10 min per concentration, then washed. Particulars: tags: His6-TwinStrep-SUMO cleaved; N-terminal SNAP kept (SNAP-Surface 488); label: 3' end held by stalled T7 RNA polymerase.
Usually Kd stands for a measure of binding affinity in units of concentration. For the molecule B1, the Kd worked out at 8 ± 0.8 nM.
In turn, B2 came in with a Kd of 4.8 ± 0.5 nM.
The molecule B3 registered a Kd of 5.6 ± 0.5 nM.
Molecule B4 yielded a Kd of 5.1 ± 0.9 nM.
The same measure for B5: 36 ± 5 nM.
The same measure for B6: roughly 4.3 nM.
The same measure for B7: 1.87 ± 0.31 nM.
B8 had a Kd of 4.7 ± 0.8 nM.
Regarding B9, the Kd stood at 10.1 ± 0.9 nM.
As for B10, the figure is 23.9 ± 3.1 nM; as for B11, 4.9 ± 0.9 nM; as for B12, 29 ± 8 nM.
As for B13, the figure is 18.2 ± 1.8 nM; as for B14, 9.2 ± 2.1 nM; as for B15, 7.9 ± 1.1 nM.
As for B16, the figure is 14.3 ± 3.1 nM; as for B17, 10.6 ± 2.1 nM.
B18 came in with a Kd of 17.8 ± 1.7 nM.
Turning to B19, the Kd was 2.5 ± 0.5 nM.
The same measure for B20: 6.2 ± 0.8 nM.
The same measure for B21: 6.1 ± 0.7 nM.
B22 registered a Kd of 2.3 ± 0.6 nM.
On to B23, for which the Kd was found to be 10.7 ± 2.4 nM.
The same measure for B24: 5.2 ± 0.6 nM; for B25: 2.32 ± 0.34 nM.
The same measure for B26: 7.6 ± 1.8 nM; for B27: 2.68 ± 0.29 nM.
The same measure for B28: 13.4 ± 1.7 nM; for B29: 5.8 ± 0.8 nM; for B30: 15.5 ± 2.1 nM.
Molecule B31 yielded a Kd of 3.3 ± 0.7 nM.
B32 registered a dissociation constant (Kd) of 7.4 ± 0.7 nM.
As for B33, the figure is 7.3 ± 0.7 nM; as for B34, roughly 40 nM.
As for B35, the figure is 42 ± 6 nM.
